B1: GLUT1: N45D (protein)
parent chain: MEPSSKKLTGRLMLAVGGAVLGSLQFGYNTGVINAPQKVIEEFYNQTWVHRYGESILPTTLTTLWSLSVAIFSVGGMIGSFSVGLFVNRFGRRNSMLMMNLLAFVSAVLMGFSKLGKSFEMLILGRFIIGVYCGLTTGFVPMYVGEVSPTALRGALGTLHQLGIVVGILIAQVFGLDSIMGNKDLWPLLLSIIFIPALLQCIVLPFCPESPRFLLINRNEENRAKSVLKKLRGTADVTHDLQEMKEESRQMMREKKVTILELFRSPAYRQPILIAVVLQLSQQLSGINAVFYYSTSIFEKAGVQQPVYATIGSGIVNTAFTVVSLFVVERAGRRTLHLIGLAGMAGCAILMTIALALLEQLPWMSYLSIVAIFGFVAFFEVGPGPIPWFIVAELFSQGPRPAAIAVAGFSNWTSNFIVGMCFQYVEQLCGPYVFIIFTVLLVLFFIFTYFKVPETKGRTFDEIASGFRQGGASQSDKTPEELFHPLGADSQV
B2: GLUT1: MGAT4A knockdown (protein)
parent chain: MEPSSKKLTGRLMLAVGGAVLGSLQFGYNTGVINAPQKVIEEFYNQTWVHRYGESILPTTLTTLWSLSVAIFSVGGMIGSFSVGLFVNRFGRRNSMLMMNLLAFVSAVLMGFSKLGKSFEMLILGRFIIGVYCGLTTGFVPMYVGEVSPTALRGALGTLHQLGIVVGILIAQVFGLDSIMGNKDLWPLLLSIIFIPALLQCIVLPFCPESPRFLLINRNEENRAKSVLKKLRGTADVTHDLQEMKEESRQMMREKKVTILELFRSPAYRQPILIAVVLQLSQQLSGINAVFYYSTSIFEKAGVQQPVYATIGSGIVNTAFTVVSLFVVERAGRRTLHLIGLAGMAGCAILMTIALALLEQLPWMSYLSIVAIFGFVAFFEVGPGPIPWFIVAELFSQGPRPAAIAVAGFSNWTSNFIVGMCFQYVEQLCGPYVFIIFTVLLVLFFIFTYFKVPETKGRTFDEIASGFRQGGASQSDKTPEELFHPLGADSQV

Key:
IF staining, 293T = details: glycan lost; control: GLUT1-WT
[1] = IF co-staining, Ishikawa cells; details: glycan changed form; control: shC with GAL9 overexpression

| Protein | localisation_or_trafficking (IF staining, 293T) | localisation_or_trafficking [1] |
| --- | --- | --- |
| B1 | decreases |  |
| B2 |  | decreases |

From article PMC11672308
